Values of other authors, collected in article PMC4245983 (Biochemistry, 2014).
Entries after “also recorded” stand apart in the source; their conditions may differ.

Experiments:
HscA [1] = details: read-out: Km of WT HscA (ATP)
HscA [2] = details: compared to DnaK
HscA [3] = details: 25 °C; background statement, no reference given
WT HscA = details: read-out: Kd^ATP of WT HscA
[4] = test system: [2Fe-2S] cluster transfer
Hsc70 NBD = details: NBD with interdomain linker; ref 32 (b59 prints ref 23)

B1: WT HscA: specialized Hsp70-type chaperone (66 kDa) of E. coli (protein, UniProt P0A6Z1 1-616, looked up)
chain: MALLQISEPGLSAAPHQRRLAAGIDLGTTNSLVATVRSGQAETLADHEGRHLLPSVVHYQQQGHSVGYDARTNAALDTANTISSVKRLMGRSLADIQQRYPHLPYQFQASENGLPMIETAAGLLNPVRVSADILKALAARATEALAGELDGVVITVPAYFDDAQRQGTKDAARLAGLHVLRLLNEPTAAAIAYGLDSGQEGVIAVYDLGGGTFDISILRLSRGVFEVLATGGDSALGGDDFDHLLADYIREQAGIPDRSDNRVQRELLDAAIAAKIALSDADSVTVNVAGWQGEISREQFNELIAPLVKRTLLACRRALKDAGVEADEVLEVVMVGGSTRVPLVRERVGEFFGRPPLTSIDPDKVVAIGAAIQADILVGNKPDSEMLLLDVIPLSLGLETMGGLVEKVIPRNTTIPVARAQDFTTFKDGQTAMSIHVMQGERELVQDCRSLARFALRGIPALPAGGAHIRVTFQVDADGLLSVTAMEKSTGVEASIQVKPSYGLTDSEIASMIKDSMSYAEQDVKARMLAEQKVEAARVLESLHGALAADAALLSAAERQVIDDAAAHLSEVAQGDDVDAIEQAIKNVDKQTQDFAARRMDQSVRRALKGHSVDEV
modifications: full-length
Km (HscA [1]): 12.6 µM
binding affinity for ATP, fold weaker than DnaK (HscA [2]): 10^3 fold
rate of ADP dissociation, fold higher than DnaK (HscA [2]): > 10^3 fold
intrinsic ATPase activity (HscA [3]): 0.02 min^–1
preferential binding to conformational state of IscU (IscU): binds preferentially to the D-state
Kd (WT HscA): 26 ± 7 µM

B2: HscA T212V (protein, UniProt P0A6Z1 1-616, looked up, variant T212V)
Chaperone protein HscA: MALLQISEPGLSAAPHQRRLAAGIDLGTTNSLVATVRSGQAETLADHEGRHLLPSVVHYQQQGHSVGYDARTNAALDTANTISSVKRLMGRSLADIQQRYPHLPYQFQASENGLPMIETAAGLLNPVRVSADILKALAARATEALAGELDGVVITVPAYFDDAQRQGTKDAARLAGLHVLRLLNEPTAAAIAYGLDSGQEGVIAVYDLGGGVFDISILRLSRGVFEVLATGGDSALGGDDFDHLLADYIREQAGIPDRSDNRVQRELLDAAIAAKIALSDADSVTVNVAGWQGEISREQFNELIAPLVKRTLLACRRALKDAGVEADEVLEVVMVGGSTRVPLVRERVGEFFGRPPLTSIDPDKVVAIGAAIQADILVGNKPDSEMLLLDVIPLSLGLETMGGLVEKVIPRNTTIPVARAQDFTTFKDGQTAMSIHVMQGERELVQDCRSLARFALRGIPALPAGGAHIRVTFQVDADGLLSVTAMEKSTGVEASIQVKPSYGLTDSEIASMIKDSMSYAEQDVKARMLAEQKVEAARVLESLHGALAADAALLSAAERQVIDDAAAHLSEVAQGDDVDAIEQAIKNVDKQTQDFAARRMDQSVRRALKGHSVDEV
effect of ATPase deficient mutant on [2Fe-2S] cluster transfer [4]: abolishes [2Fe-2S] cluster transfer

B3: auxilin: J-protein of Hsc70 (protein, UniProt Q27974 1-910, looked up)
Auxilin: MDSSGASSPDMEPSYGGGLFDMVKGGAGRLFSNLKDNLKDTLKDTSSRVIQSVTSYTKGDLDFTYVTSRIIVMSFPLDSVDIGFRNQVDDIRSFLDSRHLDHYTVYNLSPKSYRTAKFHSRVSECSWPIRQAPSLHNLFAVCRNMYNWLLQNPKNVCVVHCLDGRAASSILVGAMFIFCNLYSTPGPAVRLLYAKRPGIGLSPSHRRYLGYMCDLLADKPYRPHFKPLTIKSITVSPVPFFNKQRNGCRPYCDVLIGETKIYTTCADFERMKEYRVQDGKIFIPLSITVQGDVVVSMYHLRSTIGSRLQAKVTNTQIFQLQFHTGFIPLDTTVLKFTKPELDACDVPEKYPQLFQVTLDVELQPHDKVMELTPPWEHYCTKDVNPSILFSSHQEHQDTLVLGGQAPIDIPPDNPRHFGQGGFFSTLCWQDQKSEKSFCEEDHAALVNQESEQSDDELLTLSSPHGNANGDKPHAARKPSKKQQEPAAPAPPEDVDLLGLEGSAVSKNFSSPAAPPSNSELLSDLFGGGGAAGPVQSGQSGVDDVFHPSGPTSTQSTPRRSATSTSASPTLRVGEGATFDPFGAPSKPSGQDLLGSFLNTASASSDPFLQPTRSPSPTVHASSTPAVNIQPDVSGAWDWHTKPGGFGMGSKSAATSPTGSSHGTPTHQNKPQTLDPFADLGTLGGSSFASKPSTPTGLGGGFPPLSSPQKASPQPMGGGWQQGGGYNWQQTQSKPQSSMPHSSPQNRPNYNVSFSSMPGGQNERGKAAANLEGKQKAADFEDLLSGQGFNAHKDKKGPRTIAEMRKEEMAKEMDPEKLKILEWIEGKERNIRALLSTMHTVLWAGETKWKPVGMADLVTPEQVKKVYRKAVLVVHPDKATGQPYEQYAKMIFMELNDAWSEFENQGQKPLY
effect on ATPase activity of Hsc70 NBD variants (Hsc70 NBD): stimulated by its J-protein (auxilin) if and only if the interdomain linker was present; also recorded: could be stimulated by its J-protein, auxilin
